Data as given in patent publication US20220017601A1 (JIANGSU HENGRUI MEDICINE, published 2022).

Assays:
[1] = target: human PD-L1 on CHO/PD-L1 cells (CS187108, Promega) (human, UniProt Q9NZQ7 19-290); test: cell-based or functional assay
[2] = target: T1, human TGF-β1 (human, UniProt P01137 279-390); test: cell-based or functional assay
[3] = target: T1, human TGF-β1; test: ELISA, plate coated with human TGF-β1, anti-human Fc-HRP, OD 450 nm
Description: a. […] Washing 3 times with 250 μl of 1×PBST, 250 μl of 5% milk PBS was added for blocking at 37° C. for 2 hours. c. […] Washing 3 times with 250 μl 1×PBST. e. 100 μl of Anti-human Fc antibody-HRP (1:4000) was added to each well and incubated for 40 minutes at 37° C. f. 100 μl of TMB was added into each well, incubated for 10 minutes at room temperature, and the reaction was stopped by adding 100 μl of 1 M H₂SO₄. g. The absorbance at 450 nm was measured on a microplate reader, and the data was analyzed by Graphpad Prism 5.

T1 sequence (P01137 279-390 limits assumed): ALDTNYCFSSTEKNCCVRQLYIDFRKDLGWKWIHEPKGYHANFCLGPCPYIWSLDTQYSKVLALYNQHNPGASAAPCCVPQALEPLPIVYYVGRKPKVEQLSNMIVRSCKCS
human PD-L1 on CHO/PD-L1 cells (CS187108, Promega), sequence (Q9NZQ7 19-290): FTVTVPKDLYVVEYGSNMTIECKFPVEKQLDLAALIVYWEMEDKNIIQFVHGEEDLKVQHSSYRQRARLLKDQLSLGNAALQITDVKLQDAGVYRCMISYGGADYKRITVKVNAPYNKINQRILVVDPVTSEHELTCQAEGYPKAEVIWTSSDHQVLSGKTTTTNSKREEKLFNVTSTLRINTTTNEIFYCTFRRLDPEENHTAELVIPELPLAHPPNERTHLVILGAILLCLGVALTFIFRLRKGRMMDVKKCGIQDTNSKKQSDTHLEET

EC50 (read off the curve), luminescence of the PD-1/PD-L1 blockade reporter assay [1]: ~0.3 nM | TGFβ-induced pSMAD3 reporter activity (luciferase, HepG2 cells), IC50 [2]: > 500 nM | binding result [3]: no binding (tested: 1e6 pM (Log(pM) 6))
B1: PD-L1 antibody (antibody, human IgG4 S228P, kappa, F234A L235A, V domains shown)
VH: QVQLVQSGAEVKKPGASVKVSCKASGYTFTSYWMHWVRQAPGQGLEWMGRIGPNSGFTSYNEKFKNRVTMTRDTSTSTVYMELSSLRSEDTAVYYCARGGSSYDYFDYWGQGTTVTVSS
VL: DIVLTQSPASLAVSPGQRATITCRASESVSIHGTHLMHWYQQKPGQPPKLLIYAASNLESGVPARFSGSGSGTDFTLTINPVEAEDTANYYCQQSFEDPLTFGQGTKLEIKR
notes: Human IgG4 with S228P, F234A, L235A and the C-terminal K mutated to A; also called Ab; PD-L1 antibody IgG4 (AA) (S228P)
